Measurements published in article PMC8458281, “Computational modeling and experimental validation of the EPI-X4/CXCR4 complex allows rational design of small peptide antagonists” (Communications Biology, 2021).

B1: EPI-X4 JM#21 [human] / CXCR4 wt (transfected 293T cells) [human] (parent complex)
chain 1: ILRWSRKLPCVS
chain 2: MEGISIYTSDNYTEEMGSGDYDSMKEPCFREENANFNKIFLPTIYSIIFLTGIVGNGLVILVMGYQKKLRSMTDKYRLHLSVADLLFVITLPFWAVDAVANWYFGNFLCKAVHVIYTVNLYSSVLILAFISLDRYLAIVHATNSQRPRKLLAEKVVYVGVWIPALLLTIPDFIFANVSEADDRYICDRFYPNDLWVVVFQFQHIMVGLILPGIVILSCYCIIISKLSHSKGHQKRKALKTTVILILAFFACWLPYYIGISIDSFILLEIIKQGCEFENTVHKWISITEALAFFHCCLNPILYAFLGAKFKTSAQHALTSVSRGSSLKILSKGKRGGHSSVSTESESSSFHSS

Variants of: B1
Experiment: 12G5 antibody competition assay, flow cytometry on transfected 293T cells; 2 h incubation; IC50 set to 100 µM if above the maximally used concentration; parent: 620 nM; read off a plot

Variant	IC50
chain 2 MEGISIYTSDNYTEEMGSGDYDSMKEPCFREENANFNKIFLPTIYSIIFLTGIVGNGLVILVMGYQKKLRSMTDKYRLHLSVADLLFVITLPFWAVEAVANWYFGNFLCKAAHVIYTVNLYSSVLILAFISLDRYLAIVHATNSQRPRKLLAEKVVYVGVWIPALLLTIPDFIFANVSEADDRYICDRFYPNDLWVVVFQFQHIMVGLILPGIVILSCYCIIISKLSHSKGHQKRKALKTTVILILAFFACWLPYYIGISIDSFILLEIIKQGCEFENTVHKWISITEALAFFHCCLNPILYAFLGAKFKTSAQHALTSVSRGSSLKILSKGKRGGHSSVSTESESSSFHSS [chain 2 D97E, chain 2 V112A]	~460 nM
chain 2 MEGISIYTSDNYTEEMGSGDYDSMKEPCFREENANFNKIFLPTIYSIIFLTGIVGNGLVILVMGYQKKLRSMTDKYRLHLSVADLLFVITLPFWAVEAVANWYFGNFLCKAVHVIYTVNLYSSVLILAFISLDRYLAIVHATNSQRPRKLLAEKVVYVGVWIPALLLTIPDFIFANVSEADDRYICDRFYPNDLWVVVFQFQHIMVGLILPGIVILSCYCIIISKLSHSKGHQKRKALKTTVILILAFFACWLPYYIGISIDSFILLEIIKQGCEFENTVHKWISITEALAFFHCCLNPILYAFLGAKFKTSAQHALTSVSRGSSLKILSKGKRGGHSSVSTESESSSFHSS [chain 2 D97E]	~1800 nM
chain 2 MEGISIYTSDNYTEEMGSGDYDSMKEPCFREENANFNKIFLPTIYSIIFLTGIVGNGLVILVMGYQKKLRSMTDKYRLHLSVADLLFVITLPFWAVSAVANWYFGNFLCKAVHVIYTVNLYSSVLILAFISLDRYLAIVHATNSQRPRKLLAEKVVYVGVWIPALLLTIPDFIFANVSEADDRYICDRFYPNDLWVVVFQFQHIMVGLILPGIVILSCYCIIISKLSHSKGHQKRKALKTTVILILAFFACWLPYYIGISIDSFILLEIIKQGCEFENTVHKWISITEALAFFHCCLNPILYAFLGAKFKTSAQHALTSVSRGSSLKILSKGKRGGHSSVSTESESSSFHSS [chain 2 D97S]	~5400 nM
chain 2 MEGISIYTSDNYTEEMGSGDYDSMKEPCFREENANFNKIFLPTIYSIIFLTGIVGNGLVILVMGYQKKLRSMTDKYRLHLSVADLLFVITLPFWAVTAVANWYFGNFLCKAVHVIYTVNLYSSVLILAFISLDRYLAIVHATNSQRPRKLLAEKVVYVGVWIPALLLTIPDFIFANVSEADDRYICDRFYPNDLWVVVFQFQHIMVGLILPGIVILSCYCIIISKLSHSKGHQKRKALKTTVILILAFFACWLPYYIGISIDSFILLEIIKQGCEFENTVHKWISITEALAFFHCCLNPILYAFLGAKFKTSAQHALTSVSRGSSLKILSKGKRGGHSSVSTESESSSFHSS [chain 2 D97T]	~3700 nM

Now from value to variant:

IC50	Variant
~630 nM	chain 2 MEGISIYTSDNYTEEMGSGDYDSMKEPCFREENANFNKIFAPTIYSIIFLTGIVGNGLVILVMGYQKKLRSMTDKYRLHLSVADLLFVITLPFWAVDAVANWYFGNFLCKAAHVIYTVNLYSSVLILAFISLDRYLAIVHATNSQRPRKLLAEKVVYVGVWIPALLLTIPDFIFANVSEADDRYICDRFYPNDLWVVVFQFQHIMVGLILPGIVILSCYCIIISKLSHSKGHQKRKALKTTVILILAFFACWLPYYIGISIDSFILLEIIKQGCEFENTVHKWISITEALAFFHCCLNPILYAFLGAKFKTSAQHALTSVSRGSSLKILSKGKRGGHSSVSTESESSSFHSS [chain 2 L41A, chain 2 V112A]
~270 nM	chain 2 MEGISIYTSDNYTEEMGSGDYDSMKEPCFREENANFNKIFLPTIYSIIFLTGIVGNGLVILVMGYQKKLRSMTDKYRLHLSVADLLFVITLPFWAVDAVANWYFGNFLCKAVHVIYTVNLYSSVLILAFISLDRYLAIVHATNSQRPRKLLAEKVVYVGVWIPALLLTIPDFIFANVSEADDRYICDRFYPNDLWVVVFQFQHIMVGLILPGIVILSCYCIIISKLSHSKGHQKRKALKTTVILILAFFACWLPYYIGISIDSFILLEIIKQGCEFANTVHKWISITEALAFFHCCLNPILYAFLGAKFKTSAQHALTSVSRGSSLKILSKGKRGGHSSVSTESESSSFHSS [chain 2 E277A]
~3400 nM	chain 2 MEGISIYTSDNYTEEMGSGDYDSMKEPCFREENANFNKIFLPTIYSIIFLTGIVGNGLVILVMGYQKKLRSMTDKYRLHLSVADLLFVITLPFWAVDAVANWYFGNFLCKAAHVIYTVNLYSSVLILAFISLDRYLAIVHATNSQRPRKLLAEKVVYVGVWIPALLLTIPDFIFANVSEADDRYICDRFYPNDLWVVVFQFQHIMVGLILPGIVILSCYCIIISKLSHSKGHQKRKALKTTVILILAFFACWLPYYIGISIDSFILLEIIKQGCEFENTVHKWISITEALAFFHCCLNPILYAFLGAKFKTSAQHALTSVSRGSSLKILSKGKRGGHSSVSTESESSSFHSS [chain 2 V112A]
~400 nM	chain 2 MEGISIYTSDNYTEEMGSGDYDSMKEPCFREENANFNKIFLPTIYSIIFLTGIVGNGLVILVMGYQKKLRSMTDKYRLHLSVADLLFVITLPFWAVDAVANWYFGNFLCKALHVIYTVNLYSSVLILAFISLDRYLAIVHATNSQRPRKLLAEKVVYVGVWIPALLLTIPDFIFANVSEADDRYICDRFYPNDLWVVVFQFQHIMVGLILPGIVILSCYCIIISKLSHSKGHQKRKALKTTVILILAFFACWLPYYIGISIDSFILLEIIKQGCEFENTVHKWISITEALAFFHCCLNPILYAFLGAKFKTSAQHALTSVSRGSSLKILSKGKRGGHSSVSTESESSSFHSS [chain 2 V112L]
